Experimental findings from patent US20150344570A1 (published 2015) are described below.

To fix the notation:
B1: GpH7-B3 variant S239_08L/GpL16-k0 (Ho Ab) (antibody, human IgG1, kappa)
heavy: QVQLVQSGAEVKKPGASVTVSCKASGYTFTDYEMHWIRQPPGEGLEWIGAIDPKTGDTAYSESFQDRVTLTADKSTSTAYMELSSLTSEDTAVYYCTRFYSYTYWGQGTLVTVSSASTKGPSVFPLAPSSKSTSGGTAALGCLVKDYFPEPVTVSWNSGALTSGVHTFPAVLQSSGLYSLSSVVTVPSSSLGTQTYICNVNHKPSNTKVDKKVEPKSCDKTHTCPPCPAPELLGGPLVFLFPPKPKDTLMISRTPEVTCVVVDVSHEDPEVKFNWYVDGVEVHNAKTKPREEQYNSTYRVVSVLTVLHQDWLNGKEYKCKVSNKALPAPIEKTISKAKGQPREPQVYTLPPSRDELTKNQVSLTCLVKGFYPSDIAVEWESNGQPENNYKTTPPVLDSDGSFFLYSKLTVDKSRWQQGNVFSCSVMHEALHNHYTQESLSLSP
light: DIVMTQSPLSLPVTPGEPASISCQASESLVHSNRNTYLHWYLQKPGQSPQLLIYKVSNRFSGVPDRFSGSGSGTDFTLKISRVEAEDVGVYYCSQNTHVPPTFGQGTKVEIERTVAAPSVFIFPPSDEQLKSGTASVVCLLNNFYPREAKVQWKVDNALQSGNSQESVTEQDSKDSTYSLSSTLTLSKADYEKHKVYACEVTHQGLSSPVTKSFNRGEC
notes: Anti-glypican-3 IgG1; mutation in both H chains; also called S239L homodimerized antibody
B2: GpH7-A5/GpH7-B3 variant L328_03V/GpL16-k0 (He Ab) (antibody, human IgG1, kappa)
heavy 1: not shown
heavy 2: not shown
light: B1 light
notes: Anti-glypican-3 IgG1; mutation only in the GpH7-B3-derived H chain; also called L328V heterodimerized antibody
B3: GpH7-A5/GpH7-B3 variant L328_04F/GpL16-k0 (He Ab) (antibody, human IgG1, kappa)
heavy 1: not shown
heavy 2: not shown
light: B1 light
notes: Anti-glypican-3 IgG1; mutation only in the GpH7-B3-derived H chain; also called L328F heterodimerized antibody
B4: GpH7-B3 variant S267_03V/GpL16-k0 (Ho Ab) (antibody, human IgG1, kappa)
heavy: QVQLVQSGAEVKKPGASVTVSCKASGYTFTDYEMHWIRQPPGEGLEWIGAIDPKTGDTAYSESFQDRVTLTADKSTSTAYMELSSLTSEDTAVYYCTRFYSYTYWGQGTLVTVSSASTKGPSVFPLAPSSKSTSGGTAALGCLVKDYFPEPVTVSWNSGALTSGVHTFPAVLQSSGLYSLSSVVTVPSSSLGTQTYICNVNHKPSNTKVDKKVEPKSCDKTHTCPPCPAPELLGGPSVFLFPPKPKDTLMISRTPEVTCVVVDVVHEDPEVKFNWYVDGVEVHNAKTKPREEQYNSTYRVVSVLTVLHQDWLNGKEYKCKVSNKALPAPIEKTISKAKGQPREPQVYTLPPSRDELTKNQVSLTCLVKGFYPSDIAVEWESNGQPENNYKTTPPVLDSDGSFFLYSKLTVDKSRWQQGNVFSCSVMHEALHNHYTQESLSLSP
light: B1 light
notes: Anti-glypican-3 IgG1; mutation in both H chains; also called S267V homodimerized antibody
B5: GpH7-A5/GpH7-B3 variant L328_07I/GpL16-k0 (He Ab) (antibody, human IgG1, kappa)
heavy 1: not shown
heavy 2: not shown
light: B1 light
notes: Anti-glypican-3 IgG1; mutation only in the GpH7-B3-derived H chain; also called L328I heterodimerized antibody
B6: GpH7-A5/GpH7-B3 variant L328_06M/GpL16-k0 (He Ab) (antibody, human IgG1, kappa)
heavy 1: not shown
heavy 2: not shown
light: B1 light
notes: Anti-glypican-3 IgG1; mutation only in the GpH7-B3-derived H chain; also called L328M heterodimerized antibody
B7: GpH7-A5/GpH7-B3 variant S239_01G/GpL16-k0 (He Ab) (antibody, human IgG1, kappa)
heavy 1: not shown
heavy 2: not shown
light: B1 light
notes: Anti-glypican-3 IgG1; mutation only in the GpH7-B3-derived H chain; also called S239G heterodimerized antibody
B8: GpH7-A5/GpH7-B3 variant S239_07I/GpL16-k0 (He Ab) (antibody, human IgG1, kappa)
heavy 1: not shown
heavy 2: not shown
light: B1 light
notes: Anti-glypican-3 IgG1; mutation only in the GpH7-B3-derived H chain; also called S239I heterodimerized antibody
B9: GpH7-A5/GpH7-B3 variant S239_08L/GpL16-k0 (He Ab) (antibody, human IgG1, kappa)
heavy 1: not shown
heavy 2: not shown
light: B1 light
notes: Anti-glypican-3 IgG1; mutation only in the GpH7-B3-derived H chain; also called S239L heterodimerized antibody
B10: GpH7-A5/GpH7-B3 variant K334_19Q/GpL16-k0 (He Ab) (antibody, human IgG1, kappa)
heavy 1: not shown
heavy 2: not shown
light: B1 light
notes: Anti-glypican-3 IgG1; mutation only in the GpH7-B3-derived H chain; also called K334Q heterodimerized antibody
B11: GpH7-B3 variant T335_08L/GpL16-k0 (Ho Ab) (antibody, human IgG1, kappa)
heavy: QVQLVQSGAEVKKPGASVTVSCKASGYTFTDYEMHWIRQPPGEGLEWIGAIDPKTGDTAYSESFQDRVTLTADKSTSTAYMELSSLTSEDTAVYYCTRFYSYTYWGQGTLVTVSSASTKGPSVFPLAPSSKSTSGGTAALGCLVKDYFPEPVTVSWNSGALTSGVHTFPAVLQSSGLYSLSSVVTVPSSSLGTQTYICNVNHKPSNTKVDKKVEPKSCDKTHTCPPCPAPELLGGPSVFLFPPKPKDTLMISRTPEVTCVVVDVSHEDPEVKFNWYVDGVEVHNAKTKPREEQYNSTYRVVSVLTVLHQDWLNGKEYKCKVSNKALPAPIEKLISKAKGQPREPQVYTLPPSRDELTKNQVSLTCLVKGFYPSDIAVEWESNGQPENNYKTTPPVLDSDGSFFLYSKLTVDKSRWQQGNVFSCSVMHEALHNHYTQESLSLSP
light: B1 light
notes: Anti-glypican-3 IgG1; mutation in both H chains; also called T335L homodimerized antibody
B12: GpH7-A5/GpH7-B3 variant S267_10E/GpL16-k0 (He Ab) (antibody, human IgG1, kappa)
heavy 1: not shown
heavy 2: not shown
light: B1 light
notes: Anti-glypican-3 IgG1; mutation only in the GpH7-B3-derived H chain; also called S267E heterodimerized antibody
B13: GpH7-B3 variant S267_07I/GpL16-k0 (Ho Ab) (antibody, human IgG1, kappa)
heavy: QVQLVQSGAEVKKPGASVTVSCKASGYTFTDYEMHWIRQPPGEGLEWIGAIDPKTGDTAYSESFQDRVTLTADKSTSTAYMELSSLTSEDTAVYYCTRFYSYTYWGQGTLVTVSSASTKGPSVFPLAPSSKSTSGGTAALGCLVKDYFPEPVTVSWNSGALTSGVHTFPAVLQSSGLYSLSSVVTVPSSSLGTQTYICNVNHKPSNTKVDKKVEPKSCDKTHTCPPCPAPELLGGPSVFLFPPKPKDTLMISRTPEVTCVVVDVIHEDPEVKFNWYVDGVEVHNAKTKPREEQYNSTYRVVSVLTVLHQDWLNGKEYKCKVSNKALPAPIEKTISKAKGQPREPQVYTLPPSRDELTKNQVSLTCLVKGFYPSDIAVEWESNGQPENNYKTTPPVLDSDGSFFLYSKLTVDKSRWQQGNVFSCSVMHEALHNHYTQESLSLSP
light: B1 light
notes: Anti-glypican-3 IgG1; mutation in both H chains; also called S267I homodimerized antibody
B14: GpH7-B3 variant S267_02A/GpL16-k0 (Ho Ab) (antibody, human IgG1, kappa)
heavy: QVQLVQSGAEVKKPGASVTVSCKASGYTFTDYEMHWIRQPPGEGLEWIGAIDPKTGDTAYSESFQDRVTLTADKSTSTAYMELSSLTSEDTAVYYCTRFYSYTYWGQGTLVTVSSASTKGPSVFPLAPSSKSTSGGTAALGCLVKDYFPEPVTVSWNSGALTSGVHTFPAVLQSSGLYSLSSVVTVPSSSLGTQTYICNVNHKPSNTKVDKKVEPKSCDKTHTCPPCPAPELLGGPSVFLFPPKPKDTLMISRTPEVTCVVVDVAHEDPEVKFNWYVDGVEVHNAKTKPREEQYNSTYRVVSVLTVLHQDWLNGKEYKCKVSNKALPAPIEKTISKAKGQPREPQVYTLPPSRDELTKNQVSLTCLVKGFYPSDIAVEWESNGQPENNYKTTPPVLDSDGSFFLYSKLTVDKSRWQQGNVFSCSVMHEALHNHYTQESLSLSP
light: B1 light
notes: Anti-glypican-3 IgG1; mutation in both H chains; also called S267A homodimerized antibody
B15: GpH7-A5/GpH7-B3 variant S267_02A/GpL16-k0 (He Ab) (antibody, human IgG1, kappa)
heavy 1: not shown
heavy 2: not shown
light: B1 light
notes: Anti-glypican-3 IgG1; mutation only in the GpH7-B3-derived H chain; also called S267A heterodimerized antibody
B16: GpH7-A5/GpH7-B3 variant S337_10E/GpL16-k0 (He Ab) (antibody, human IgG1, kappa)
heavy 1: not shown
heavy 2: not shown
light: B1 light
notes: Anti-glypican-3 IgG1; mutation only in the GpH7-B3-derived H chain; also called S337E heterodimerized antibody
B17: GpH7-A5/GpH7-B3 variant P238_08L/GpL16-k0 (He Ab) (antibody, human IgG1, kappa)
heavy 1: not shown
heavy 2: not shown
light: B1 light
notes: Anti-glypican-3 IgG1; mutation only in the GpH7-B3-derived H chain; also called P238L heterodimerized antibody
B18: GpH7-B3 variant S267_08L/GpL16-k0 (Ho Ab) (antibody, human IgG1, kappa)
heavy: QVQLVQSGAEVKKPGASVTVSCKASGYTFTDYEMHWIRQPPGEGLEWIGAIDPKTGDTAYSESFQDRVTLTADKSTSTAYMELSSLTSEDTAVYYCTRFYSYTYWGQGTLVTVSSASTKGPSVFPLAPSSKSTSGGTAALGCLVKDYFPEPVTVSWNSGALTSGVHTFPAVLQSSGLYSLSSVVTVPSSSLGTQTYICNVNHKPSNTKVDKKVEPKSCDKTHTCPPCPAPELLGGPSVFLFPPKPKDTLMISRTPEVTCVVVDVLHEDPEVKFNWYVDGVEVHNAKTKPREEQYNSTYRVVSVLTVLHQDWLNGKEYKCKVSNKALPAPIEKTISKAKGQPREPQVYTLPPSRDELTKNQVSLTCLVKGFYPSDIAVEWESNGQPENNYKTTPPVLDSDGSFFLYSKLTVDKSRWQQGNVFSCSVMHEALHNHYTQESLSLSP
light: B1 light
notes: Anti-glypican-3 IgG1; mutation in both H chains; also called S267L homodimerized antibody
B19: GpH7-B3 variant S337_09D/GpL16-k0 (Ho Ab) (antibody, human IgG1, kappa)
heavy: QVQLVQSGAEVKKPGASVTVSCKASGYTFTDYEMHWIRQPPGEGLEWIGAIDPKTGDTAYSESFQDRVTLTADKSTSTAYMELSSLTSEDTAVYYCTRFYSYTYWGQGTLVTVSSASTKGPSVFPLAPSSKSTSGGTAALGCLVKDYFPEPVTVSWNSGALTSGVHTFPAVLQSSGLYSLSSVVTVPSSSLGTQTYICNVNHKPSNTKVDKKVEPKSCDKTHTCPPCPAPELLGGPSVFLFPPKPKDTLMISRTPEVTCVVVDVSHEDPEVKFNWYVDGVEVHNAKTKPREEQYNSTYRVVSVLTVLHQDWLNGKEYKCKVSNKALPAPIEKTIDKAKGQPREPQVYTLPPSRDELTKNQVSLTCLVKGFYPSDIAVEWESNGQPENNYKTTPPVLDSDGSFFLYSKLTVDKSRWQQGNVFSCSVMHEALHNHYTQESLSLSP
light: B1 light
notes: Anti-glypican-3 IgG1; mutation in both H chains; also called S337D homodimerized antibody
B20: GpH7-A5/GpH7-B3 variant S298_08L/GpL16-k0 (He Ab) (antibody, human IgG1, kappa)
heavy 1: not shown
heavy 2: not shown
light: B1 light
notes: Anti-glypican-3 IgG1; mutation only in the GpH7-B3-derived H chain; also called S298L heterodimerized antibody
B21: GpH7-A5/GpH7-B3 variant T335_09D/GpL16-k0 (He Ab) (antibody, human IgG1, kappa)
heavy 1: not shown
heavy 2: not shown
light: B1 light
notes: Anti-glypican-3 IgG1; mutation only in the GpH7-B3-derived H chain; also called T335D heterodimerized antibody
B22: GpH7-A5/GpH7-B3 variant S239_18N/GpL16-k0 (He Ab) (antibody, human IgG1, kappa)
heavy 1: not shown
heavy 2: not shown
light: B1 light
notes: Anti-glypican-3 IgG1; mutation only in the GpH7-B3-derived H chain; also called S239N heterodimerized antibody
B23: GpH7-A5/GpH7-B3 variant K334_16H/GpL16-k0 (He Ab) (antibody, human IgG1, kappa)
heavy 1: not shown
heavy 2: not shown
light: B1 light
notes: Anti-glypican-3 IgG1; mutation only in the GpH7-B3-derived H chain; also called K334H heterodimerized antibody
B24: GpH7-B3 variant T335_04F/GpL16-k0 (Ho Ab) (antibody, human IgG1, kappa)
heavy: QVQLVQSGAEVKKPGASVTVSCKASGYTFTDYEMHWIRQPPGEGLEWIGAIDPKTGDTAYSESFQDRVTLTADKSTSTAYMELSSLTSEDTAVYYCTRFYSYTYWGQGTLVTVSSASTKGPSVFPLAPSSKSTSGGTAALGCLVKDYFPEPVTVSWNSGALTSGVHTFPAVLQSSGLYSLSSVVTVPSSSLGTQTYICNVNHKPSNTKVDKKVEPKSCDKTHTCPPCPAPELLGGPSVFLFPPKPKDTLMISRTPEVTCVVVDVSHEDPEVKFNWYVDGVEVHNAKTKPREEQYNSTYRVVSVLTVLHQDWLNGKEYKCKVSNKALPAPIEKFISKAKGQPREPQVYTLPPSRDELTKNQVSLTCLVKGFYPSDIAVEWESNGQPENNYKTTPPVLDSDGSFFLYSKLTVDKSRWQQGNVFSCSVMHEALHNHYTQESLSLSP
light: B1 light
notes: Anti-glypican-3 IgG1; mutation in both H chains; also called T335F homodimerized antibody
B25: GpH7-A5/GpH7-B3 variant S267_14T/GpL16-k0 (He Ab) (antibody, human IgG1, kappa)
heavy 1: not shown
heavy 2: not shown
light: B1 light
notes: Anti-glypican-3 IgG1; mutation only in the GpH7-B3-derived H chain; also called S267T heterodimerized antibody
B26: GpH7-A5/GpH7-B3 variant P331_04F/GpL16-k0 (He Ab) (antibody, human IgG1, kappa)
heavy 1: not shown
heavy 2: not shown
light: B1 light
notes: Anti-glypican-3 IgG1; mutation only in the GpH7-B3-derived H chain; also called P331F heterodimerized antibody

The target of this assay is T1, human FcγRIIb extracellular domain with C-terminal His tag (human, UniProt P31994 43-217).
T1 construct: extracellular domain; also called FcgRIIb; 2b; not shown: His tag attached to the C terminus
T1 sequence (looked up): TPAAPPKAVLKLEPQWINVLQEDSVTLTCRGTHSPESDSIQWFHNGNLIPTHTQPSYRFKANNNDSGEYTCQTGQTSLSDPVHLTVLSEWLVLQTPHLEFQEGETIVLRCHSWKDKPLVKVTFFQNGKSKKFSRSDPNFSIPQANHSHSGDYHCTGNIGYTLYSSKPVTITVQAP
Nature of the assay: SPR (Biacore T100), antibody captured on antigen peptide chip, FcγRIIb as analyte; relative binding. As for the experimental part:
Analysis of interaction between objective antibody and the FcγR was carried out using Biacore T100 (GE Healthcare). HBS-EP+ (GE Healthcare) was used as the running buffer, and the measurement temperature was set to 25° C. Chips produced by immobilizing the antigen peptide by the amine coupling method to a Series S Sencor Chip CM5 (GE Healthcare), or alternatively, chips produced by allowing preliminarily biotinylated antigen peptides to interact with and immobilize onto a Series S Sensor Chip SA (certified) (GE Healthcare) were used. Antibodies of interest were captured onto an antigen peptide-immobilized chip, and allowed to interact to each FcγR diluted with running buffer. To regenerate and repeatedly use the chip, the antibodies captured on the chip were washed off by reacting 10 mM glycine-HCl, pH 1.5.
For orientation: In SPR one partner is held on a chip, and binding of the other changes the refractive index at the surface.
As for B1, the Ho/Con_2b was 142 % of control GpH7-B3/GpL16-k0 (=100).

In the case of B2, the He/Con_2b is 126 % of control GpH7-A5/GpH7-B3/GpL16-k0 (=100).

On to B3, for which the He/Con_2b is 219 % of control GpH7-A5/GpH7-B3/GpL16-k0 (=100).

For the molecule B4, the Ho/Con_2b is 206 % of control GpH7-B3/GpL16-k0 (=100).

B5: the He/Con_2b is 160 % of control GpH7-A5/GpH7-B3/GpL16-k0 (=100).

Turning to B6, the He/Con_2b was 142 % of control GpH7-A5/GpH7-B3/GpL16-k0 (=100).

Consider B7, for which the He/Con_2b is 144 % of control GpH7-A5/GpH7-B3/GpL16-k0 (=100).

B8: the He/Con_2b is 107 % of control GpH7-A5/GpH7-B3/GpL16-k0 (=100).

On to B9, for which the He/Con_2b was 140 % of control GpH7-A5/GpH7-B3/GpL16-k0 (=100).

On to B10, for which the He/Con_2b was 109 % of control GpH7-A5/GpH7-B3/GpL16-k0 (=100).

For B11, the Ho/Con_2b is 106 % of control GpH7-B3/GpL16-k0 (=100).

As to B12, the He/Con_2b was 379 % of control GpH7-A5/GpH7-B3/GpL16-k0 (=100).

As for B13, the Ho/Con_2b was 213 % of control GpH7-B3/GpL16-k0 (=100).

Consider B14, for which the Ho/Con_2b was 274 % of control GpH7-B3/GpL16-k0 (=100).

For the molecule B15, the He/Con_2b was 243 % of control GpH7-A5/GpH7-B3/GpL16-k0 (=100).

With B16, the He/Con_2b is 107 % of control GpH7-A5/GpH7-B3/GpL16-k0 (=100).

Take B17: the He/Con_2b was 204 % of control GpH7-A5/GpH7-B3/GpL16-k0 (=100).

On to B18, for which the Ho/Con_2b is 109 % of control GpH7-B3/GpL16-k0 (=100).

Turning to B19, the Ho/Con_2b is 116 % of control GpH7-B3/GpL16-k0 (=100).

Turning to B20, the He/Con_2b is 108 % of control GpH7-A5/GpH7-B3/GpL16-k0 (=100).

With B21, the He/Con_2b was 108 % of control GpH7-A5/GpH7-B3/GpL16-k0 (=100).

B22: the He/Con_2b was 119 % of control GpH7-A5/GpH7-B3/GpL16-k0 (=100).

With B23, the He/Con_2b is 113 % of control GpH7-A5/GpH7-B3/GpL16-k0 (=100).

On to B24, for which the Ho/Con_2b is 107 % of control GpH7-B3/GpL16-k0 (=100).

For B25, the He/Con_2b was 104 % of control GpH7-A5/GpH7-B3/GpL16-k0 (=100).

In the case of B26, the He/Con_2b was 110 % of control GpH7-A5/GpH7-B3/GpL16-k0 (=100).
